According to the supplement of paper PMC10567573:

B1: PTPRD (parent)
chain: ELDELLKEISRKRRSIRYGREVEL

Variants of: B1
Assay: protein stability index of a GFP-peptide fusion (GPS, HEK-293T) (PSI 1-6); higher = more stable
Conditions: c terminus: a fixed tail appended
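Note: lentivirally expressed fusions sorted by FACS into six bins by GFP to DsRed ratio, PSI derived from sequencing read proportions per bin multiplied by bin number.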

Protein stability index, by site and new letter:
V22: E 3.18; D 2.96; I 2.17; Y 2.27; R 2.46; G 2.64; P 2.04; T 2.52; L 2.14; S 2.79; Q 2.5; W 2.39; N 2.35; M 2.85; K 2.34; H 2.88; F 2.22; C 2.29; A 1.82
E8: I 2.83; W 2.64; T 2.79; A 1.68; G 2.86; V 1.7; Q 2.81; M 2.37; F 2; Y 1.88; R 2.54; S 2.45; H 1.99; N 2.44; C 1.83; K 3.79; P 2.77; L 2.03; D 2.92
R13: Y 1.43; E 3.07; V 1.55; K 2.54; Q 2.36; L 1.46; T 2.28; W 1.72; G 2.96; F 2.06; S 3.25; N 3; I 2.23; P 3.3; A 2.38; H 2.14; C 1.8; M 2.21; D 4.49
K12: T 2.56; L 1.95; H 2.03; A 1.99; Y 1.55; P 2.53; S 2.63; V 2.23; Q 1.81; W 1.66; F 1.29; G 2.26; M 2.11; R 2.49; C 2.49; I 1.66; E 2.32; D 2.39
L6: Q 3.73; R 3.76; F 2.07; I 1.93; P 4.08; K 3.92; M 2.68; D 4.29; H 3.19; T 3.92; Y 2.71; N 3.81; V 3.8; S 3.98; E 4.28; G 4.21; W 1.5
G19: P 2.17; T 2.37; R 1.96; K 2.06; S 2.04; H 2.41; L 2.13; V 3.13; A 2.34; C 2.7; M 2.41; Y 2.1; N 2.47; Q 2.33; F 1.71; W 2.9; I 2.05; D 2.22; E 2.71
K7: W 2.19; Q 2.46; G 2.54; N 2.16; C 2.33; S 2.6; M 2.26; T 3.09; H 2.4; E 3.1; D 3.25; R 2.27; V 2.07; P 3.12; F 2; L 2.72; I 2.27; Y 2.77; A 2.83
S15: W 1.59; L 2.04; G 2.44; F 2.27; K 1.88; R 2.22; H 2.89; I 2.29; D 1.91; Y 2.65; N 2.65; V 2.29; A 2.45; P 2.6; M 2.54; T 2.99; E 2.65; Q 3.4
R14: L 3.77; N 2.1; C 2.19; A 2.02; Q 2.55; E 2.73; D 2.65; S 2.9; P 2.64; K 2.39; M 2.03; V 2.42; W 1.73; H 2.92; I 1.99; F 1.96; G 3.16; Y 1.66; T 2.38
